# B1: Ribonuclease wild type, P00648 (protein)
# chain: MMKMEGIALKKRLSWISVCLLVLVSAAGMLFSTAAKTETSSHKAHTEAQVINTFDGVADYLQTYHKLPDNYITKSEAQALGWVASKGNLADVAPGKSIGGDIFSNREGKLPGKSGRTWREADINYTSGFRNSDRILYSSDWLIYKTTDHYQTFTKIR
# Settings: Bacillus amyloliquefaciens, 25 °C, Urea, NMR, NaCl 1 M, whole UniProt chain shown
protein,measurement,setting,value
B1,unfolding free energy,"pH 4.4, Sodium acetate 30 mM",8.13 kcal/mol
same,unfolding free energy,"pH 8.9, Tris 30 mM",8.05 kcal/mol
